Measurements taken from US7495068B2, “Antiangiogenic peptides, polypeptides encoding same and methods for inhibiting angiogenesis” (Abbott Laboratories, priority 1996, dated 2009).

B1: kringle 5 (Val^443-Ala^543): kringle 5 peptide fragment, amino acid positions 443-543 of human plasminogen (SEQ ID NO:1) (protein, listed as Homo sapiens)
chain: VAPPPVVLLPDVETPSEEDCMFGNGKGYRGKRATTVTGTPCQDWAAQEPHRHSIFTPETNPRAGLEKNYCRNPDGDVGGPWCYTTNPRKLYDYCDVPQCAA
B2: kringle 4 (Val^354-Val^443): kringle 4 fragment of plasminogen, SEQ ID NO:1 (protein, listed as Homo sapiens)
chain: VVQDCYHGDGQSYRGTSSTTTTGKKCQSWSSMTPHRHQKTPENYPNAGLTMNYCRNPDADKGPWCFTTDPSVRWEYCNLKKCSGTEASVV
B3: kringle 2 (Glu^161-Thr^245): kringle 2 fragment of plasminogen, SEQ ID NO:1 (protein, listed as Homo sapiens)
chain: ECEEECMHCSGENYDGKISKTMSGLECQAWDSQSPHAHGYIPSKFPNKNLKKNYCRNPDRELRPWCFTTDPNKRWELCDIPRCTT

What was measured:
BCE Cells [1] = test: Endothelial proliferation assay (bFGF-stimulated); format: cell-based, bovine
Experimental: The in vitro proliferation of endothelial cells was determined as described by Lingen, et al., in Laboratory Investigation, 74: 476-483 (1996), which is hereby incorporated herein by reference, using the Cell Titer 96 Aqueous Non-Radioactive Cell Proliferation Assay kit (Promega® Corporation, Madison, Wis.). Bovine capillary (adrenal) endothelial cells were plated at a density of 1000 cells per well in a 96-well plate in Dulbecco's Modified Eagle Medium (DMEM) containing 10% donor calf serum and 1% BSA (bovine serum albumin, GIBCO® BRL, Gaithersburg, Md.). After 8 hours, the cells were starved overnight in DMEM containing 0.1% BSA then re-fed with media containing specified concentrations of inhibitor and 5 ng/mL bFGF (basic fibroblast growth factor). The results of the assay were corrected both for unstimulated cells (i.e. no bFGF added) as the baseline and for cells stimulated with bFGF alone (i.e. no inhibitor added) as the maximal proliferation. When multiple experiments were combined, the results were represented as the percent change in cell number as compared to bFGF alone.
The effect of kringle 5 peptide fragments on endothelial cell proliferation was determined in vitro using the above described endothelial cell proliferation assay. […]

BCE Cells [2] = conditions: rows marked *: data taken from Marti et al. 1994; cited from earlier work

Row | Molecule | fold increase in activity at inhibiting BCE cell proliferation compared to kringle 1-4 peptide fragments (BCE Cells [1]; vs kringle 1-4 peptide fragments) [fold] | fold increase in activity at inhibiting BCE cell proliferation compared to kringle 5 fragment 443-546 of SEQ ID NO:1 (BCE Cells [1]; vs kringle 5 (443-546)) [fold] | Antiproliferative Activity of BCE Cells (ED50) (BCE Cells [2])
1 | B1 | ~800 | ~300 | 
2 | B2 |  |  | no activity
3 | B3 |  |  | no activity
